Measurements as given in US20240166739A1 (KISOJI BIOTECHNOLOGY, published 2024).
One block for each binder: values may come before it.

What was measured:
[1] = molecular target: T1, recombinant human PD-1 protein (human, UniProt Q15116 25-167); test: ELISA on coated recombinant PD-1 (FIG. 9A)
T1 construct: Bought protein; also called human recombinant PD1 protein; PD-1 recombinant protein
Procedure: (§1) The binding of binding agents comprising anti-PD-1 and -CD47 antigen binding domain to recombinant human or cynomolgous PD-1 (Cedarlane, Cat. No. HPLC-10377-H08H-100) or recombinant human or cynomolgous CD47 (Cedarlane, Cat. No. 12283-H08H-200 and 90869-C08H) was assessed by ELISA (FIG. 9A, FIG. 9B, FIG. 9C, FIG. 9D, FIG. 22, FIG. 23). […] The monoclonal anti-CD47 antibody (clone B6H12) was used as a positive control in CD47 binding assays (Biolegend, Cat. No. 401401).
(§2) Briefly, recombinant proteins were coated on 96-well plates. Plates were covered and left at 4° C. overnight. The next day, plates were washed once with PBS and blocked with blocking buffer for 1 hour at room temperature. Binding agents were tested at the indicated concentration, diluted in the blocking buffer, and incubated for 1 hour at 37° C. After incubation, plates were washed three times with washing buffer. Plates were incubated with anti-human-Fc-HRP (Sigma-Aldrich, Cat. No. APi 13P) diluted at 1:5000 for 1 hour at room temperature, then washed three times with PBS-T washing buffer. The signal was developed with SuperSignal™ ELISA Pico Chemiluminescent Substrate (Thermofisher, Cat. No. 37069). The plates were read on a SpectraMax™ i3x Multi-Mode Microplate Reader (Molecular Devices).

[2] = molecular target: T2, human PD-1 on CHO-PD1 cells (human, UniProt Q15116 25-288); test: Flow cytometry, 20 µg/mL, CHO-PD1 against CHO parental cells (FIG. 10)
T2 construct: whole, on cells; also called CHO-PD-1 cell line
Procedure: The binding of binding agents to cells was assessed by flow cytometry. […] Binding agents comprising anti-PD-1 antigen binding domain, were diluted in FACS staining buffer to 20 μg/mL and added and incubated with cells for 30 minutes on ice. The PD-1 antibody (clone EH12.2H7, Biolegend) was used as a positive control.

[3] = molecular target: T1, recombinant human PD-1 protein; test: ELISA on coated recombinant PD-1, anti-human-Fc-HRP detection
Procedure: as §1, §2

T1 sequence (Q15116 25-167 limits assumed): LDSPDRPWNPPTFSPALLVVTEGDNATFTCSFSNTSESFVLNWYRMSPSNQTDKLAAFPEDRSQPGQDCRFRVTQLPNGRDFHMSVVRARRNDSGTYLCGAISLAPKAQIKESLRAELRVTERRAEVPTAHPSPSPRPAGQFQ
T2 sequence (Q15116 25-288): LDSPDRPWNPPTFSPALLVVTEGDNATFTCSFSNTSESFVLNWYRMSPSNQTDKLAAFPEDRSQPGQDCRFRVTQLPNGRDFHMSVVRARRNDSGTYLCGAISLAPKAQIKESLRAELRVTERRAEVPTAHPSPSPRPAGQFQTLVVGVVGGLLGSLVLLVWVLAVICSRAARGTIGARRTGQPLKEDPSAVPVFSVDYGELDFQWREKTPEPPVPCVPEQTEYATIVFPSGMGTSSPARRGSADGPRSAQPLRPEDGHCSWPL

- binding result [1]: binds
- binding result [2]: binds
B1: KC036 (PD-1-specific binding agent; HEWL; PD1; HEWL) (Fc fusion)
chain: QVQLVESGGGSVQAGGSLRLSCAASGSTDSIEYMTWFRQAPGKAREGVAALYTHTGNTYYTDSVKGRFTISQDKAKNMAYLRMDSVKSEDTAIYTCGATRKYVPVRFALDQSSYDYWGQGTQVTVSSEPKSCDKTHTCPPCPAPELLGGPSVFLFPPKPKDTLMISRTPEVTCVVVDVSHEDPEVKFNWYVDGVEVHNAKTKPREEQYNSTYRVVSVLTVLHQDWLNGKEYKCKVSNKALPAPIEKTISKAKGQPREPQVYTLPPSREQMTKNQVSLTCLVKGFYPSDIAVEWESNGQPENNYKTTPPVLNSDGSFFLYSKLTVDKSRWQQGNVFSCSVMHEALHNHYTQESLSLSPGKAPAPAPAPAPKAQVQLQESGGGWVQPGGSLRLSCVASGFTFSRSSMSWHRQAPGKERDLVAIISSSGIITHYSDSVKGRFTISRDNAKDTVYLQMNSLKPEDTAVYVCNAVLDDDSGDYWGQGTQVTVSSGGGGSGGGGSGGGGSQVQLVESGGGSVQAGGSLRLSCAASGSTDSIEYMTWFRQAPGKAREGVAALYTHTGNTYYTDSVKGRFTISQDKAKNMAYLRMDSVKSEDTAIYTCGATRKYVPVRFALDQSSYDYWGQGTQVTVSS
notes: Anti-HEWL VHH - IgG1 hinge-CH2-mutated CH3 - rigid linker - KC009 anti-PD-1 VHH - (G4S)3 - anti-HEWL VHH; expressed as dimer; may comprise a His-tag or not

- binding result [3]: no binding
B2: KC035 (HEWL; HEWL; HEWL negative control binding agent) (Fc fusion)
chain: QVQLVESGGGSVQAGGSLRLSCAASGSTDSIEYMTWFRQAPGKAREGVAALYTHTGNTYYTDSVKGRFTISQDKAKNMAYLRMDSVKSEDTAIYTCGATRKYVPVRFALDQSSYDYWGQGTQVTVSSEPKSCDKTHTCPPCPAPELLGGPSVFLFPPKPKDTLMISRTPEVTCVVVDVSHEDPEVKFNWYVDGVEVHNAKTKPREEQYNSTYRVVSVLTVLHQDWLNGKEYKCKVSNKALPAPIEKTISKAKGQPREPQVYTLPPSREQMTKNQVSLTCLVKGFYPSDIAVEWESNGQPENNYKTTPPVLNSDGSFFLYSKLTVDKSRWQQGNVFSCSVMHEALHNHYTQESLSLSPGKAPAPAPAPAPKAQVQLVESGGGSVQAGGSLRLSCAASGSTDSIEYMTWFRQAPGKAREGVAALYTHTGNTYYTDSVKGRFTISQDKAKNMAYLRMDSVKSEDTAIYTCGATRKYVPVRFALDQSSYDYWGQGTQVTVSSGGGGSGGGGSGGGGSQVQLVESGGGSVQAGGSLRLSCAASGSTDSIEYMTWFRQAPGKAREGVAALYTHTGNTYYTDSVKGRFTISQDKAKNMAYLRMDSVKSEDTAIYTCGATRKYVPVRFALDQSSYDYWGQGTQVTVSS
notes: Three anti-HEWL VHHs in the VHH-Fc-VHH-VHH format; negative control for KC036
